Data reported in PMC10703879 (2023).
Each block holds one binder with its values, some of them ahead of it.

Assays:
[1] = biological target: T1, BCMAECD-His (monomeric, His-tagged human BCMA extracellular domain) (human, UniProt Q02223-1 1-54); assay: SPR
T1 chain: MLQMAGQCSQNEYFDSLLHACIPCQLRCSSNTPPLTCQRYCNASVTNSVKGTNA

[2] = biological target: T2, BCMAECD-Fc (dimerized, Fc-tagged human BCMA extracellular domain) (human, UniProt Q02223-1 1-54, not fully specified); assay: SPR
T2 chain: T1 chain

koff [1]: 6.52e-05 s⁻¹
koff [2]: 2.94e-05 s⁻¹
B1: Nb1 (anti-BCMA nanobody 1 of the cilta-cel CAR) (VHH)
VHH: QVKLEESGGGLVQAGRSLRLSCAASEHTFSSHVMGWFRQAPGKERESVAVIGWRDISTSYADSVKGRFTISRDNAKKTLYLQMNSLKPEDTAVYYCAARRIDAADFDSWGQGTQVTVSS

koff [1]: 0.0264 s⁻¹
koff [2]: 0.0108 s⁻¹
B2: Nb2 (anti-BCMA nanobody 2 of the cilta-cel CAR) (VHH)
VHH: EVQLVESGGGLVQAGGSLRLSCAASGRTFTMGWFRQAPGKEREFVAAISLSPTLAYYAESVKGRFTISRDNAKNTVVLQMNSLKPEDTALYYCAADRKSVMSIRPDYWGQGTQVTVSS
